Assay results reported in US8828941 (KUNOVUS, dated 2014).

Biological target: the molecule itself
Experiment: non-reducing PAGE of protein from CHO cells
Excerpt: Concentrated supernatants from one well of a 6-well plate were separated using polyaclylamide gel electrophoresis (PAGE) under […] conditions. Proteins were transferred to nitrocellulose membranes and detected with antisera specific for GDF-6 or for the FLAG tag, secondary antibodies and detection system.

B1: active domain of GDF-6 fused to a FLAG tag (SEQ ID NO: 25), expressed in CHO cells (ligand)
chain: MDYKDDDDKENLYFQGTAFASRHGKRHGKKSRLRCSKKPLHVNFKELGWDDWIIAPLEYEAYHCEGVCDFPLRSHLEPTNHAIIQTLMNSMDPGSTPPSCCVPTKLTPISILYIDAGNNVVYKQYEDMVVESCGCR
notes: Non-reducing PAGE indicates a homodimer; also called active fragment of GDF-6; active fragment
- binding result: binds
